Reference: US20100095387A1, “METHODS AND REAGENTS FOR SCREENING NEW DRUGS AND FOR TREATING ION PUMP ASSOCIATED DISORDERS AND DISEASES” (priority 2005, published 2010)

Tested on: cultured cortical neurons
Assay: Firing properties of cultured cortical neurons in normal external solution
Assay type: cell-based, mouse
Details: absence of TTX and neurotransmitter receptor antagonists

| Molecule | frequency of spontaneous action potentials |
| --- | --- |
| C-Ag15: 15-kD COOH-terminal fragment of agrin created by deleting 37 amino acids from the NH2 terminus of C-Ag20, SEQ. ID NO. 3 (protein, Synthetically produced sequence) MDPWIGKAAERADYMALAIVDGHLQLSYDLASQPVVLRSTVKVNTNRWLRVRAHREHREGSLQVGNEAPVTSSSPLGATQLDTDGALWLGGLQKLPVGQPLPKAYGTGFVGCLRNVVGHRQLHLLEDAVTKPELRPCPTLNSKLGPEQKLISEEDLNSAVDHHHHHH | inhibited spontaneous activity |
| C-Ag20z0: C-Ag20 isoform having the z0 splice variant, SEQ. ID NO. 1 (protein, Synthetically produced sequence) MDPRTYIEYLNAVTESEKALQSNHFELTLRTEATQGWLVLWIGKAAERADYMALAIVDGHLQLSYDLASQPVVLRSTVKVNTNRWLRVRAHREHREGSLQVGNEAPVTSSSPLGATQLDTDGALWLGGLQKLPVGQPLPKAYGTGFVGCLRNVVGHRQLHLLEDAVTKPELRPCPTLNSKLGPEQKLISEEDLNSAVDHHHHHH | significant and reversible increase |
